The target in test [1] is Human ST2-fc (human) (UniProt Q01638). Nature of the test: competition ELISA, coated ST2-fc, competitor IL33-his. In general terms: In an ELISA, binding on a coated surface is turned into a signal by an enzyme label.
Test [2] has as its target T1, Human ST2-his (human, UniProt Q01638-2 19-328, limits assumed).
T1 construct: Expressed in CHO-K1; The printed range starts at Met1; also called human ST2 fused with a 6-histidine tag at the C-terminus
T1 sequence: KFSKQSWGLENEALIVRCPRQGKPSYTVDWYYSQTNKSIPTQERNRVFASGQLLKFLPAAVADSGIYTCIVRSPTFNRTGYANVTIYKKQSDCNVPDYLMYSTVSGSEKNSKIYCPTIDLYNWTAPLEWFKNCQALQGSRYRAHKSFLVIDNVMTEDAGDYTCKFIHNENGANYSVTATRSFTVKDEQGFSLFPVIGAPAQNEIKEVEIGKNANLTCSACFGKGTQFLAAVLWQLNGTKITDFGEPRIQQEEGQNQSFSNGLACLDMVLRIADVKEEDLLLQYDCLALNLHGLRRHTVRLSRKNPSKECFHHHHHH
Nature of the test: SPR Biacore X100, antibody captured on protein A chip, human ST2-his injected, pH 7.4. On the procedure: The experiment on the interaction between the anti-human ST2 antibodies and human ST2-his was performed using Biacore X100.
Each anti-human ST2 antibody was diluted to 2 µg/mL and captured on the surface of a protein A chip for a capture time of 60 s. Following the antibody capture, a solution of human ST2-his (2-fold gradient dilution from a starting concentration of 20 nM, to obtain 6 concentrations in total) was injected. Association was monitored for 180 s and dissociation was monitored for 700 s, and the sensor surface was regenerated by injecting a solution of glycine at pH 2.0. Kinetic data were analyzed using a simple 1:1 binding model.
(In SPR one partner is held on a chip, and binding of the other changes the refractive index at the surface.)

Test [3] concerns the target T2, ST2 on the effector cells (KU812, KU812/NF-κB-1#, HUVEC, HMC-1) (human, UniProt Q01638 19-556).
T2 sequence (looked up): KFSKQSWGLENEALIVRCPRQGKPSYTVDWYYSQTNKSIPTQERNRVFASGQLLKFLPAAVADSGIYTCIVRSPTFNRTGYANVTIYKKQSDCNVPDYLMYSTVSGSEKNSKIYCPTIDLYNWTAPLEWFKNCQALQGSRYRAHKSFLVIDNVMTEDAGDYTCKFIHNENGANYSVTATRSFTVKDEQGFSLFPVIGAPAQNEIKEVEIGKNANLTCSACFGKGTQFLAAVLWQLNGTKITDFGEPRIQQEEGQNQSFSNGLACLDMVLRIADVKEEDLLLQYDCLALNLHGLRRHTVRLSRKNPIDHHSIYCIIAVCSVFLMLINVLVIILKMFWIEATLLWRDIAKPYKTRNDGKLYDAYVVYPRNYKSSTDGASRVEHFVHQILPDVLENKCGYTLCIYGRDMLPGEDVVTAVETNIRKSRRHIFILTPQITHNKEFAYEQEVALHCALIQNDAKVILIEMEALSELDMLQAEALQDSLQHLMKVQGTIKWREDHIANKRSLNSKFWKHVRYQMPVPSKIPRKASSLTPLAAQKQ
Nature of the test: cell-based or functional assay.

The target of test [4] is T2, ST2 on the effector cells (KU812, …). Nature of the test: cell-based or functional assay. This is another data set of the same source.

The source of these data is US12624112 (MABWELL SHANGHAI BIOSCIENCE, dated 2026).

Changes are numbered by the printed parent chain.

B1: 5888-153-H0L0 (antibody, human IgG4 S228P, kappa, V domains shown)
VH: QVQLVQSGAEVKKPGASVKVSCKASGYTFTDYELHWVRQAPGQGLEWMGTIDPETGDTVYNQKFKARVTMTRDTSTSTVYMELSSLRSEDTAVYYCARAFYNDYDDGFAYWGQGTLVTVSS
VL: EIVLTQSPATLSLSPGERATLSCSVSSSVSYMHWYQQKPGQAPRLLIYDTSKLASGIPARFSGSGSGTDFTLTISSLEPEDFAVYYCQQWNSSPLTFGGGTKVEIKR
In general, IC50 refers to the concentration that inhibits the measured activity by half. A low value points to greater potency in that assay. Take B1: in test [1], the IC50 was determined as 2.57 µg/mL, the Maximum inhibition rate was found to be 92.9% and the Relative activity compared with CNTO7160 came to 44.3%.

B2: 5888-153-H0L2 (antibody, human IgG4 S228P, kappa, V domains shown)
VH: B1 VH
VL: B1 VL with L4M, L45R, F70Y, F82A, S92T
Consider B2, for which, in test [1], the IC50 was 0.474 µg/mL, the Maximum inhibition rate turned out to be 93.5% and the Relative activity compared with CNTO7160 was 240%.

B3: 5888-379-H0L0 (antibody, human IgG4 S228P, kappa, V domains shown)
VH: QVQLVQSGAEVKKPGASVKVSCKASGYTFINYGMNWVRQAPGQRLEWMGWINTYIGEPTYGDNFKGRVTITRDTSASTAYMELSSLRSEDTAVYYCAREGDGFAYWGQGTLVTVSS
VL: DIQMTQSPSSLSASVGDRVTITCKSSQSLLYSGNQNNYLAWYQQKPGKVPKLLIYGASTRESGVPSRFSGSGSGTDFTLTISSLQPEDVATYYCQNDHSYPYTFGGGTKVEIKR
On to B3, for which, in test [1], the IC50 was 0.488 µg/mL, the Maximum inhibition rate amounted to 90.5% and the Relative activity compared with CNTO7160 turned out to be 180%.

B4: 5888-379-H1L1 (antibody, human IgG4 S228P, kappa, V domains shown)
VH: B3 VH with D101E
VL: B3 VL with V89L
In the case of B4, in test [1], the IC50 came out at 0.317 µg/mL, the Maximum inhibition rate stood at 89.5% and the Relative activity compared with CNTO7160 came to 276%.

B5: 5886-156-H1L1 (antibody, human IgG4 S228P, kappa, V domains shown)
VH: QVQLQESGPGLVKPSQTLSLTCTVSGYSITSDYAWNWIRQPPGKGLEWIGYIDYSGSTTYNPSLKSRVTISRDTSKNQFSLKLSSVTAADTAVYYCASTVIDSMDYWGQGTLVTVSS
VL: DIVLTQSPASLAVSPGQRATITCRASKSVSTSGHSYMHWYQQKPGQPPKLLIYLASNLESGVPARFSGSGSGTDFTLTINPVEANDAANYYCQHSREFPFTFGQGTKVEIKR
notes: Humanized antibody
For orientation: Kd means the free concentration of one partner at which half of the binding sites on the other are occupied at equilibrium, for simple one-to-one binding. The koff is the first-order rate constant of dissociation. A low value points to a long-lived complex. The term kon denotes a measure of how fast the partners come together. A lower kon goes with slower complex formation. Regarding B5, in test [1], the IC50 was found to be 1 µg/mL, the Maximum inhibition rate was 88% and the Relative activity compared with CNTO7160 amounted to 125%. In test [2], this molecule came in with a Kd of 0.261 nM, a koff of 0.000377 s⁻¹ and a kon of 1.45e+06 M⁻¹ s⁻¹. Besides, in test [3], the “IC50, inhibition of KU812-IL5 production promoted by IL-33 (human IL33-his)” value was 0.0289 µg/mL; the “Maximum inhibition rate, KU812-IL5 production by IL-33” value was 95%; the “Relative activity compared with CNTO7160, KU812-IL5 production by IL-33” value was 222%.

B6: 5887-41-H1L1 (antibody, human IgG4 S228P, kappa, V domains shown)
VH: B5 VH with N36D, D53R, S57D, T59Y, S98T, V100M, I101M, S103T
VL: B5 VL with H34N, F100L, V108L
Consider B6, for which, in test [1], the IC50 amounted to 2.23 µg/mL, the Maximum inhibition rate came to 92.4% and the Relative activity compared with CNTO7160 turned out to be 56.2%.

B7: 5887-537-H1L0 (antibody, human IgG4 S228P, kappa, V domains shown)
VH: QVTLKESGPTLVKPTQTLTLTCTFSGFSLSTSGMGVGWIRQPPGKALEWLAHIWWDDVKQYNPALKSRLTITKDTSKSQVVLTMTNMDPVDTATYYCARIGGDYDYFDFWGQGTTVTVSS
VL: DIVLTQSPASLAVSPGQRATITCRASESVEYSGTSLMQWYQQKPGQPPKLLIYVASNVESGVPARFSGSGSGTDFTLTINPVEANDTANYYCQQSRKVPWTFGQGTKLEIKR
B7: in test [1], the IC50 was 0.0882 µg/mL, the Maximum inhibition rate came to 88.3% and the Relative activity compared with CNTO7160 amounted to 1210%.

B8: 5888-116-H1L1 (antibody, human IgG4 S228P, kappa, V domains shown)
VH: QVQLVQSGAEVKKPGASVKVSCKASGYTFTDSEMYWVRQAPGQGLEWMGAIDPETGDTAFNQKFKGRVTMTADKSTSTAYMELSSLRSEDTAVYYCTRAFDNDNDDGFAYWGQGTMVTVSS
VL: DIQMTQSPSSLSASVGDRVTITCSASSSVNYMHWYQQKPGKAPKRLIYDTSKLASGVPSRFSGSGSGTDYTFTISSLQPEDAATYYCQQWSSNPLTFGQGTKLEIKR
As to B8, in test [1], the IC50 came to 0.486 µg/mL, the Maximum inhibition rate was 94.9% and the Relative activity compared with CNTO7160 stood at 219%.

B9: 5888-153-H1L2 (antibody, human IgG4 S228P, kappa, V domains shown)
VH: B1 VH with R72A, T74K, V79A, A97T
VL: B1 VL with L4M, L45R, F70Y, F82A, S92T
For the molecule B9, in test [1], the IC50 was determined as 0.852 µg/mL, the Maximum inhibition rate came to 94% and the Relative activity compared with CNTO7160 is 134%. Further, in test [4], the “IC50, inhibition of activation of KU812-NF-κB reporter gene by IL33” value was found to be 0.0441 µg/mL; the “Maximum inhibition rate, KU812-NF-κB reporter gene” value was determined as 85%; the “Relative activity compared with CNTO7160, KU812-NF-κB reporter gene” value was 454%.

B10: 5888-357-H1L1 (antibody, human IgG4 S228P, kappa, V domains shown)
VH: B8 VH with T28R, Y35H, A50T, D57G, A59V, F60Y, K74R, A79V, D101Y, N104F
VL: B1 VL with L4M, V25A, S27T, L45R, F70Y, F82A, N91S, S93N
For B10, in test [1], the IC50 worked out at 0.49 µg/mL, the Maximum inhibition rate came to 93.2% and the Relative activity compared with CNTO7160 worked out at 257%.

B11: 5888-153-H1L0 (antibody, human IgG4 S228P, kappa, V domains shown)
VH: B1 VH with R72A, T74K, V79A, A97T
VL: B1 VL
With B11, in test [1], the IC50 worked out at 1.32 µg/mL, the Maximum inhibition rate was determined as 92.5% and the Relative activity compared with CNTO7160 turned out to be 86.2%.

B12: 5888-153-H1L1 (antibody, human IgG4 S228P, kappa, V domains shown)
VH: B1 VH with R72A, T74K, V79A, A97T
VL: B1 VL with L4M, L45R, F70Y, F82A
Turning to B12, in test [1], the half-inhibitory concentration (IC50) was 0.624 µg/mL, the Maximum inhibition rate is 93.8% and the Relative activity compared with CNTO7160 stood at 183%. In addition, in test [4], the “IC50, inhibition of activation of KU812-NF-κB reporter gene by IL33” value worked out at 0.0124 µg/mL; the “Maximum inhibition rate, KU812-NF-κB reporter gene” value is 91.4%; the “Relative activity compared with CNTO7160, KU812-NF-κB reporter gene” value is 1620%.

B13: 5888-116-H3L1 (antibody, human IgG4 S228P, kappa, V domains shown)
VH: B8 VH with G107A
VL: B8 VL
As for B13, in test [1], the IC50 is 0.611 µg/mL, the Maximum inhibition rate stood at 90.7% and the Relative activity compared with CNTO7160 is 187%.
